{
  "source": "patent US20070292907",
  "tested_on": "bovine 19S complex (PA700)",
  "data": [
    {"substance": "USP14-ΔUBL (91-494) (purified recombinant, activation assay)", "values": [
      {"measurement": "activity toward UbVS (anti-ubiquitin immunoblot)", "result": "showed extremely low activity toward UbYS, both in the absence and presence of the 19S regulatory particle"}
    ]}
  ]
}
